Format in all cases: cell-based
For one assay, the target named is T1, NaV1.7 (Homo sapiens, UniProt Q15858).
T1 construct: expressed in transfected cells; host or cells: HEK293 (human embryonic kidney) cells stably expressing NaV1.7
Description: Patch-clamp electrophysiology of HEK-NaV1.7 stable cells. The following applies: HEK-NaV1.7 cells, 500 nM peptide. Here is the method:
HEK-NaV1.7 stable cell lines were plated at low density on glass cover slips for 3-4 hours and subsequently transferred to the recording chamber. Recordings were performed at room temperature (20-22° C.) […] using a MultiClamp 700B amplifier (Molecular Devices, Sunnyvale, CA). The composition of recording solutions consisted of the following salts: extracellular (mM): 140 NaCl, 3 KCl, 1 MgCl2, 1 CaCl2), 10 HEPES, 10 glucose, pH 7.3; intracellular (mM): 130 CH3O3SCs, 1 EGTA, 10 NaCl, 10 HEPES, pH 7.3. Membrane capacitance and series resistance were estimated by the dial settings on the amplifier and compensated for electronically by 70-80%. Data were acquired at 20 kHz and filtered at 5 kHz prior to digitization and storage. All experimental parameters were controlled by Clampex 9.2 software (Molecular Devices) and interfaced to the electrophysiological equipment using a Digidata 1200 analog-digital interface (Molecular Devices). Voltage-dependent inward currents for HEK-NaV1.7 cells were evoked by depolarizations to test potentials between −100 mV and +60 mV from a holding potential of −70 mV followed by a voltage pre-step pulse of −120 mV (NaV1.7). Steady-state (fast) inactivation of NaV channels was measured with a paired-pulse protocol. From the holding potential, cells were stepped to varying test potentials between −120 mv (Nar 1.7) and +20 mV (pre-pulse) prior to a test pulse to −20 mV.
Current densities were obtained by dividing Na+ current (INa) amplitude by membrane capacitance. Current-voltage relationships were generated by plotting current density as a function of the […]. Conductance (GNa) was calculated by the following equation:
GNa=INa/(Vm−Erev) • where INa is the current amplitude at voltage Vm, and Erev is the Na^+ reversal potential.
To test whether given peptides (10 in total, listed below) had modulatory effects on NaV1.7-mediated Na^+ currents, we used patch-clamp electrophysiology of human embryonic kidney cells stably expressing NaV1.7 (HEK-NaV1.7).
(In general: The patch-clamp technique gives a direct electrical read-out from membranes.)

The next assay deals with T2, NaV1.6 (Homo sapiens, UniProt Q9UQD0).
T2 construct: expressed in transfected cells; host or cells: HEK293 cells stably expressing NaV1.6
T2 sequence (Q9UQD0 whole entry): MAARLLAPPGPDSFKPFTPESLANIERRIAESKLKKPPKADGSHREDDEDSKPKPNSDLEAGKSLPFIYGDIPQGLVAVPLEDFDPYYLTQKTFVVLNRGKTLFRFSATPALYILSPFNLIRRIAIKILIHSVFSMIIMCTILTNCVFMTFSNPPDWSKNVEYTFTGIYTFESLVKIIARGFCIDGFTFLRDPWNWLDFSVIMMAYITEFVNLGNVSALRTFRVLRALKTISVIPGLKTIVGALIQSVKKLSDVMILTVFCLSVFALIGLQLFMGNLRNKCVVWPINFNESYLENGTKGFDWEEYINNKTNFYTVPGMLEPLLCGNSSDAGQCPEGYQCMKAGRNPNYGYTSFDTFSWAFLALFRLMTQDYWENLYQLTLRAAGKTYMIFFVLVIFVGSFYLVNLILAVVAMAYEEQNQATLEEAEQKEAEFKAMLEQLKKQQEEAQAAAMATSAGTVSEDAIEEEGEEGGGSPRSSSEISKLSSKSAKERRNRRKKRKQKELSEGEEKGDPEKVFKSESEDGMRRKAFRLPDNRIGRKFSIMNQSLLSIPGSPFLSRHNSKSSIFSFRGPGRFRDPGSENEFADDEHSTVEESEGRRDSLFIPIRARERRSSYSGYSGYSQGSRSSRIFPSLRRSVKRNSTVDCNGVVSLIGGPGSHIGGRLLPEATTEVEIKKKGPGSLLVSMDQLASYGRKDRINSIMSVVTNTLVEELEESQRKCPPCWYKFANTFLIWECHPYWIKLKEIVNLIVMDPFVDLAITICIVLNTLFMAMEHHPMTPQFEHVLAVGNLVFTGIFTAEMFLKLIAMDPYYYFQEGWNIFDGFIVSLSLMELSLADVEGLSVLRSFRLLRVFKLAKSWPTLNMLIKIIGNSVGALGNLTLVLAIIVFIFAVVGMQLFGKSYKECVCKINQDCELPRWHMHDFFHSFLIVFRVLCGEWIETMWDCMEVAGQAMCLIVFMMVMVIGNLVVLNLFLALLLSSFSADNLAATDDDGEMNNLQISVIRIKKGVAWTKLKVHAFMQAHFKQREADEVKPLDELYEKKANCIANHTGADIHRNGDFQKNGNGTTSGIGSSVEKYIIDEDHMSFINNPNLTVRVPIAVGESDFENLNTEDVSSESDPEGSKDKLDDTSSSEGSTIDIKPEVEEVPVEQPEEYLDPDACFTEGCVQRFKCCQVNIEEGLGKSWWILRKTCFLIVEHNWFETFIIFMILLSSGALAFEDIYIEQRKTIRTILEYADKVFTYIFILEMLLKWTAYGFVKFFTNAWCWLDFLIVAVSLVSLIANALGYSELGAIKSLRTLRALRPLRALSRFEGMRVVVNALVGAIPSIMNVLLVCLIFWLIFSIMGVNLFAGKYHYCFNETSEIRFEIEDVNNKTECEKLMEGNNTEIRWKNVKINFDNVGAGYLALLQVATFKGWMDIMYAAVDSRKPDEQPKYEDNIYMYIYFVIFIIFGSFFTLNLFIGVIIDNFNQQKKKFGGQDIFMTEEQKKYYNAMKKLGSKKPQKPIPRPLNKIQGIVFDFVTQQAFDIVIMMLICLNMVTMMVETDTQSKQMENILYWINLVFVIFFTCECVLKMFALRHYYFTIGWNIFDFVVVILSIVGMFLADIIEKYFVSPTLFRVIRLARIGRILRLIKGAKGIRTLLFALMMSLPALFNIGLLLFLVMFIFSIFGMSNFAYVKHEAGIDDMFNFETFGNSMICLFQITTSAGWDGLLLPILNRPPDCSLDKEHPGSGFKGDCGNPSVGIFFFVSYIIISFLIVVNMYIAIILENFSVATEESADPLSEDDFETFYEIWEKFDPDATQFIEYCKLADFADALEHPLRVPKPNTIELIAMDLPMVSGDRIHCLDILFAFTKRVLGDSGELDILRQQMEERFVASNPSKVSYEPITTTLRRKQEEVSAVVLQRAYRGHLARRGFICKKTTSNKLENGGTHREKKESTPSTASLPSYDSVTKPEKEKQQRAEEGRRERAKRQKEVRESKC
Description: Whole-cell patch-clamp electrophysiology in HEK293 cells stably expressing NaV1.6 (HEK-NaV1.6). The following applies: for effect on NaV1.6 currents / Peak current density, Nav1.6 (Treatment): HEK-NaV1.6 cells; for effect on NaV1.6 currents: 500 nM peptide vs control; for Peak current density, Nav1.6 (Treatment): mean ± SEM (n). Here is the method: HEK-NaV1.6 cells were plated at low density on glass cover slips for 3-4 hours and subsequently transferred to the recording chamber. Recordings were performed at room temperature (20-22° C.) after 48 h to thaw them using a MultiClamp 200B and 700B amplifier (Molecular Devices, Sunnyvale, CA). The composition of recording solutions consisted of the following salts; extracellular (mM): 140 NaCl, 3 KCl, 1 MgCl2, 1 CaCl2), 10 HEPES, 10 glucose, pH 7.3; intracellular (mM): 130 CH3O3SCs, 1 EGTA, 10 NaCl, 10 HEPES, pH 7.3. Membrane capacitance and series resistance were estimated by the dial settings on the amplifier and compensated for electronically by 70-75%. Data were acquired at 20 kHz and filtered at 5 kHz prior to digitization and storage. All experimental parameters were controlled by Clampex 9.2 software (Molecular Devices) and interfaced to the electrophysiological equipment using a Digidata 1200 analog-digital interface (Molecular Devices). Voltage-dependent inward currents for HEK-NaV 1.6 cells were evoked by depolarization to test potentials between −100 mV and +60 mV from a holding potential of −70 mV followed by a voltage pre-step pulse of −120 mV (Nar 1.6).
(§1) Current densities were obtained by dividing Na^+ current (INa^+) amplitude by membrane capacitance. Current-voltage relationships were generated by plotting current density as a function of the […].
(§2) Statistics were calculated as mean and standard error of the mean (mean SEM) using Prism 7 (La Jolla, CA). The statistical significance of observed differences among groups was determined by Student's t-test or for two group comparisons significance was tested with unpaired. Electrophysiological data analysis was performed using Clampfit 9 software (Molecular Devices).
To test whether Peptide 1, 3, 7 and 8 had any modulatory effects on NaV 1.6-mediated Na^+ currents, we used whole-cell patch-clamp electrophysiology in HEK293 cells stably expressing NaV1.6 (HEK-NaV1.6) channels; each group was either treated with peptides 1, 3, 7 and 8 (500 nM from a stock solution dissolved in H2O or DMSO) or H2O and 0.1% DMSO alone (control). […] However, peptide 7 potentiates the NaV1.6-mediated transient Na^+ currents (INa+), and were not statistically different compared to control (FIG. 17 A-C and Table 1).

The target of the next assay is T3, human NaV1.5 channel (Homo sapiens, UniProt Q14524).
T3 construct: expressed in transfected cells; host or cells: HEK293 cells stably expressing human NaV1.5 (G418 selection)
T3 sequence (Q14524 whole entry): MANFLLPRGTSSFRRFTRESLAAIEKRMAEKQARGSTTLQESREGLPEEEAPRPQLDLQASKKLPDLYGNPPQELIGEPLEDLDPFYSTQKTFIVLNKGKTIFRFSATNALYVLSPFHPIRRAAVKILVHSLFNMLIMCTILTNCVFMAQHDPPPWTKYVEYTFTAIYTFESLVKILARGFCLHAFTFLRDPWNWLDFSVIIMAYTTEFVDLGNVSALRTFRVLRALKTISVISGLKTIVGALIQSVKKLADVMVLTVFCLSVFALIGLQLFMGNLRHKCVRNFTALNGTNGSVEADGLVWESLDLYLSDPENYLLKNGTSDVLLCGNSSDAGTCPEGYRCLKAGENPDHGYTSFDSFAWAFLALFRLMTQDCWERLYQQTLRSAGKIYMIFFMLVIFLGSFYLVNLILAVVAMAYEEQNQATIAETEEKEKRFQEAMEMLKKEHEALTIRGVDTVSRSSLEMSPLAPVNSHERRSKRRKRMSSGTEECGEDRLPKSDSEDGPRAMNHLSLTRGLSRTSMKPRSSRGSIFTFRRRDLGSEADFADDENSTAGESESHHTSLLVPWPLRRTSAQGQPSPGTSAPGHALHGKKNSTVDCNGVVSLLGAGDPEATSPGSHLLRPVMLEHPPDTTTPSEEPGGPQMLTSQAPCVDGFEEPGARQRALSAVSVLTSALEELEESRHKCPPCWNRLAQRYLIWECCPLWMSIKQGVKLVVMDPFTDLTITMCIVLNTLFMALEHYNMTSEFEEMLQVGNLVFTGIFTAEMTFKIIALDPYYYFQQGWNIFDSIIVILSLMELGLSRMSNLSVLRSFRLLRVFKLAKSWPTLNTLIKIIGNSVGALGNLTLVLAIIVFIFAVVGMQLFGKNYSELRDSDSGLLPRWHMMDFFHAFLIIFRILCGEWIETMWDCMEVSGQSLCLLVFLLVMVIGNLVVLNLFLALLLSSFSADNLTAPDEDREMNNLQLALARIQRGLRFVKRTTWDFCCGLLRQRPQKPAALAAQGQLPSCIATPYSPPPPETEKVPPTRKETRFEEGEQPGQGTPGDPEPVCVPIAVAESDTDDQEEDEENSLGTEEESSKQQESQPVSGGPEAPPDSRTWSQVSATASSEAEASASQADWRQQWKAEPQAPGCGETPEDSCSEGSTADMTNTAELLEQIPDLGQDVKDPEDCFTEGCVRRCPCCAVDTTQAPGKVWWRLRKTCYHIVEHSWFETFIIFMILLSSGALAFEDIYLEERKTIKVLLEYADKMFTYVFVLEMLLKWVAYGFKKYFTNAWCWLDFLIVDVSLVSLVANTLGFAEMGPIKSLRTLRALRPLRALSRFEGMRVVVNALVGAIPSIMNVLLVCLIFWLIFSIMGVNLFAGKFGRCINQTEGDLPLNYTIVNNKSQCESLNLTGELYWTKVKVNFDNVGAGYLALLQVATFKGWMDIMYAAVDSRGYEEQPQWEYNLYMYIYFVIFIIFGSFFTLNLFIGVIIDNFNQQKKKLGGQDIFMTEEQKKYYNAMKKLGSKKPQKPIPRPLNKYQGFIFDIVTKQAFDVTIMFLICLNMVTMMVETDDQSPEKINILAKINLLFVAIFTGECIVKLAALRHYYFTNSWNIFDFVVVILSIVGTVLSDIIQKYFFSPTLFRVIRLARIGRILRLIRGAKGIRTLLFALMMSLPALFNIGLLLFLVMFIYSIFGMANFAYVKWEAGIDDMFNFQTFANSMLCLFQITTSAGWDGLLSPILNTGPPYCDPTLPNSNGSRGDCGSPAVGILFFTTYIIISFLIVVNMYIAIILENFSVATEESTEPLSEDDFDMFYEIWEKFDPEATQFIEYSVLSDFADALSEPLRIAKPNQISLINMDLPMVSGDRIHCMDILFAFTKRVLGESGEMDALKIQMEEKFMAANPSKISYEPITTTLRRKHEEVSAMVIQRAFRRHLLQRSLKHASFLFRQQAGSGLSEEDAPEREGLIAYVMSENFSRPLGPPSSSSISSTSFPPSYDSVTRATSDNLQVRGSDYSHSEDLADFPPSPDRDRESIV
Briefly: Whole-cell patch-clamp electrophysiology in HEK293 cells stably expressing NaV1.5 (HEK-NaV1.5). Conditions: HEK-NaV1.5 cells, 500 nM peptide vs control. Here is the method:
HEK293 cells were maintained in DMEM and F-12 (Invitrogen, Carlsbad, CA), supplemented with 0.05% glucose, 0.5 mM pyruvate, 10% fetal bovine serum, 100 units/ml penicillin, and 100 μg/ml streptomycin (Invitrogen), and incubated at 37° C. with 5% CO2. HEK293 cells stably expressing the human NaV1.5 channel (hereafter referred to as HEK-NaV1.5 cells) were maintained similarly except for the addition of 500 μg/ml G418 (Invitrogen) to maintain stable NaV 1.5 expression. Cells were grown to 80-90% confluence, washed and re-plated at very low density prior to electrophysiological recordings.
as §1, §2
To test whether Peptide 1, 3, 7 and 8 had any modulatory effects on NaV 1.5-mediated Na^+ currents, we used whole-cell patch-clamp electrophysiology in HEK293 cells stably expressing NaV1.5 (HEK-NaV1.5) channels; each group was either treated with peptides 1, 3, 7 and 8 (500 nM from a stock solution dissolved in H2O or DMSO) or H2O and 0.1% DMSO alone (control).

Marks after values point to notes of the source that are not given here.

Consider “IGEKVTIRLITSTNINDDFNIYQQKPGEPPKLL (Synthetic Peptide 7)”, for which the “blockage of the NaV1.7 sodium channel” value with NaV1.7 is given as “substantial blockage”. Further, the “effect on NaV1.6 currents” value with NaV1.6 is recorded as “potentiates”. Moreover, in the assay with NaV1.6 (500 nM peptide), the “Peak current density, Nav1.6 (Treatment)” value is on record as 121.14 ± 16.6 (10)^c. For the same sequence, the “effect on NaV1.5 currents” value in the assay with human NaV1.5 channel was “no effects”.
For “DCLGLFRKCIPDMLKCCRFNLVCSRLHKWCKYVF (Synthetic Peptide 3)”, the “blockage of the NaV1.7 sodium channel” value with NaV1.7 is listed as “substantial blockage”. Besides, the “effect on NaV1.6 currents” value with NaV1.6 is given as “suppressed”; in the assay with NaV1.6 (listed as peptide 3), “suppresses”. For the same sequence, the “Peak current density, Nav1.6 (Treatment)” value in the assay with NaV1.6 (500 nM peptide) is given as 25.32 ± 4.1 (6)^b. The “effect on NaV1.5 currents” value with human NaV1.5 channel is reported as “suppressed”.
In the case of SDEIPATFGGGTDAGL (Synthetic Peptide 1), the “blockage of the NaV1.7 sodium channel” value in the assay with NaV1.7 is “substantial blockage”. For the same sequence, the entries for the “effect on NaV1.6 currents” value with NaV1.6 and in the assay with NaV1.6 (listed as peptide 1) were “suppressed” and “suppresses”, respectively. Besides, the “Peak current density, Nav1.6 (Treatment)” value with NaV1.6 (500 nM peptide) is given as 25.65 ± 5.2 (13)^a. The “effect on NaV1.5 currents” value in the assay with human NaV1.5 channel is on record as “no effects”.
For “DCLGFMRKCLSTTDLDDDWNCCRPNLVCSRTHKWCKYVF (Synthetic Peptide 8)”, the “blockage of the NaV1.7 sodium channel” value with NaV1.7 is recorded as “substantial blockage”. For the same sequence, the “peak current density, treatment (text of b104)” value with NaV1.6 (500 nM peptide, control 194.86, n=8, treatment n=7, sentence cites FIG. 14A-C) was found to be 104.78. For the same sequence, the entries for the “effect on NaV1.6 currents” value with NaV1.6 and in the assay with NaV1.6 (listed as peptide 8) were “no effects” and “no statistically significant effect”, respectively. Moreover, the “Peak current density, Nav1.6 (Treatment)” value with NaV1.6 (500 nM peptide) is recorded as 59.75 ± 5.4 (6)^NS. In the assay with human NaV1.5 channel, the “effect on NaV1.5 currents” value is given as “no effects”.

Values taken from patent US20230374084A1, “POTENT AND SELECTIVE INHIBITORS OF NAV1.7” (ALDEVRON, LLC, priority 2020, published 2023).
